Substitutions are numbered along the chain they refer to.

In general, Kd refers to the concentration at which binding is half-saturated. A word on the koff: it is a measure of how fast the partners let go of each other. A word on the kon: it is a measure of how fast the partners come together.

B1: MOR02610 (Fab, V domains shown)
VH: QVQLVQSGAEVKKPGASVKVSCKASGYTFTGFYINWVRQAPGQGLEWMGWINPYSGNTRYAQKFQGRVTMTRDTSISTAYMELSSLRSEDTAVYYCARSPVYYKYDYWGQGTLVTVSS
VL: DIVLTQPPSVSGAPGQRVTISCSGSSGNIGINFVNWYQQLPGTAPKLLIYKNNKRPSGVPDRFSGSKSGTSASLAITGLQSEDEADYYCQSYDKTSSTYVFGGGTKLTVLG
notes: HuCAL GOLD Fab, VH1B/L1
B2: MOR02618 (Fab, V domains shown)
VH: QVQLVESGGGLVQPGGSLRLSCAASGFTFNNYGMTWVRQAPGKGLEWVSSIYGYGSNTYYADSVKGRFTISRDNSKNTLYLQMNSLRAEDTAVYYCARNYWVFAYWGQGTLVTVSS
VL: DIELTQPPSVSVAPGQTARISCSGDNIPGKSVHWYQQKPGQAPVLVIYGKMNRPSGIPERFSGSNSGNTATLTISGTQAEDEADYYCQSYDNFNDSVVFGGGTKLTVLG
notes: HuCAL GOLD Fab, VH3/L3
B3: MOR02613 (Fab, V domains shown)
VH: QVQLVESGGGLVQPGGSLRLSCAASGFTFSNYTMTWVRQAPGKGLEWVSFIIGSGSNTSYADSVKGRFTISRDNSKNTLYLQMNSLRAEDTAVYYCARYVNGFDIWGQGTLVTVSS
VL: DIALTQPASVSGSPGQSITISCTGTSSDVGVYYYVSWYQQHPGKAPKLMIYYDSKRPSGVSNRFSGSKSGNTASLTISGLQAEDEADYYCQTYAKKDYSLVFGGGTKLTVLG
notes: HuCAL GOLD Fab, VH3/L2
B4: MOR02616 (Fab, V domains shown)
VH: QVQLVESGGGLVQPGGSLRLSCAASGFTFRNNAMHWVRQAPGKGLEWVSAISSSGSGTYYADSVKGRFTISRDNSKNTLYLQMNSLRAEDTAVYYCARVIVLFDYWGQGTLVTVSS
VL: DIVLTQSPATLSLSPGERATLSCRASQNVRSNLAWYQQKPGQAPRLLIYGASNRATGVPARFSGSGSGTDFTLTISSLEPEDFAVYYCLQKYSIPFTFGQGTKVEIKR
notes: HuCAL GOLD Fab, VH3/K3
B5: MOR02722 (Fab, V domains shown)
VH: QVQLVESGGGLVQPGGSLRLSCAASGFTFSSNAIHWVRQAPGKGLEWVSSISGSGSNTYYADSVKGRFTISRDNSKNTLYLQMNSLRAEDTAVYYCARFIASWGQGTLVTVSS
VL: DIVMTQSPLSLPVTPGEPASISCRSSQSLVHSNGYTDLNWYLQKPGQSPQLLIYLGSYRASGVPDRFSGSGSGTDFTLKISRVEAEDVGVYYCQQYSNFPFTFGQGTKVEIKR
notes: HuCAL GOLD Fab, VH3/K2
B6: MOR02614 (Fab, V domains shown)
VH: B5 VH with S30N, S31N, A33W, I34M, S50F, N57H, F99A, I100Y, A101D, S102V
VL: DIVLTQPPSVSGAPGQRVTISCSGSSSNIGFNYVNWYQQLPGTAPKLLIYGNSKRPSGVPDRFSGSKSGTSASLAITGLQSEDEADYYCAMFSPEGVFGGGTKLTVLG
notes: HuCAL GOLD Fab, VH3/L1
B7: MOR02622 (Fab, V domains shown)
VH: QVQLVESGGGLVQPGGSLRLSCAASGFTFSNYAMTWVRQAPGKGLEWVSGISYKSSSTYYADSVKGRFTISRDNSKNTLYLQMNSLRAEDTAVYYCARGLVTFDNWGQGTLVTVSS
VL: DIALTQPASVSGSPGQSITISCTGTSSDGGTYNFVSWYQQHPGKAPKLMIYRVSNRPSGVSNRFSGSKSGNTASLTISGLQAEDEADYYCSSWTHSFTDYVFGGGTKLTVLG
notes: HuCAL GOLD Fab, VH3/L2
B8: MOR02611 (Fab, V domains shown)
VH: QVQLVQSGAEVKKPGASVKVSCKASGYTFSGSYMHWVRQAPGQGLEWMGIINPASGKTLYAQKFQGRVTMTRDTSISTAYMELSSLRSEDTAVYYCARGLYYRFASWGQGTLVTVSS
VL: DIALTQPASVSGSPGQSITISCTGTSSDIGGYHSVSWYQQHPGKAPKLMIYRSNRPSGVSNRFSGSKSGNTASLTISGLQAEDEADYYCAAATGGWVFGGGTNLTVLG
notes: HuCAL GOLD Fab, VH1B/L2
B9: MOR03066 (Fab, V domains shown)
VH: QVQLQESGPGLVKPGETLSLTCTVSGGSISSYYWSWIRQAPGKGLEWIGIGHWGSTQYNPSLKGRVTISVDTSKNQFSLKLSSVTAEDTAVYYCARFFDVWGQGTLVTVSS
VL: DIVLTQPPSVSGAPGQRVTISCSGSSSNIGSNTVRWYQQLPGTAPKLLIYSNNKRPSGVPDRFSGSKSGTSASLAITGLQSEDEADYYCSSYDTQVTRVFGGGTKLTVLG
notes: Fab, L-CDR3 derivative of MOR02619
B10: MOR03069 (Fab, V domains shown)
VH: B9 VH
VL: DIVLTQPPSVSGAPGQRVTISCSGSSSNIGSNTVRWYQQLPGTAPKLLIYSNNKRPSGVPDRFSGSKSGTSASLAITGLQSEDEADYYCWTGMSYHFVFGGGTKLTVLG
notes: as for B9
B11: MOR03055 (Fab, V domains shown)
VH: B9 VH
VL: DIVLTQPPSVSGAPGQRVTISCSGSSSNIGSNTVRWYQQLPGTAPKLLIYSNNKRPSGVPDRFSGSKSGTSASLAITGLQSEDEADYYCQAWTRAHRYPVFGGGTKLTVLG
notes: as for B9
B12: MOR03071 (Fab, V domains shown)
VH: B9 VH
VL: B9 VL with S90L, S91A, D93I, T94Q, Q95S, V96K, T97G, R98H
notes: as for B9
B13: MOR03075 (Fab, V domains shown)
VH: B9 VH
VL: B9 VL with S90Q, Y92W, T94P, Q95R, V96S, T97F, R98T
notes: as for B9
B14: MOR03243 (Fab, V domains shown)
VH: QVQLQESGPGLVKPGETLSLTCTVSGGSISSYYWSWIRQAPGKGLEWIGEIHRGGYTQYNPSLKSRVTISVDTSKNQFSLKLSSVTAADTAVYYCARFFDVWGQGTLVTVSS
VL: B11 VL
notes: Fab, H-CDR2 derivative of MOR03055

The target in the first assay is T1, recombinant fibronectin domain ED-B (His)6 (human, UniProt P02751 1266-1356).
T1 construct: domain: ED-B; Produced by standard procedures; immobilised on ELISA plates or on the BIAcore chip; also called recombinant ED-B; human ED-B
Description: SPR (BIAcore), ED-B immobilised on chip, Fab in flow. How it is done:
(§1) F1-Chips (Biacore, Sweden) were coated with about 200 RU of ED-B (30 μg/ml, 10 mmol of acetate buffer, pH 4.0) and reference flow cells with a corresponding amount of human serum albumin (20 μg/ml, 10 mmol of acetate buffer, pH 4.5) with use of standard EDC-NHS-amine-coupling chemistry. The antigen density was reduced to about 100 RU for the Fab characterization of the second maturation. The regeneration was carried out with 10 mmol of HCl. All kinetic measurements were carried out in PBS buffer (136 mmol of NaCl, 2.7 mmol of KCl, 10 mmol of Na₂HPO₄, 1.76 mmol of KH₂PO₄, pH 7.4) with a flow rate of 20 μl/minute with use of a Fab concentration range of 1.5-500 nmol. The injection period was 1 minute in each case. All sensograms were evaluated with use of BIA evaluation software 3.1.
The properties of twelve selected binding molecules was determined by BIAcore analysis (see Table 1). […] At least two independent measurements with Fab molecules from different batches were performed for protein expression and protein purification. The binding rate (Kₒₙ) and the dissociating-off rate (Koff) of the Fab molecule are indicated in separate columns.
A general note: SPR reads the build-up and loss of mass on a sensor chip optically.
Take B1: the Kd turned out to be 75 nM, the koff worked out at 0.091 s⁻¹ and the kon is 1.3e+06 M⁻¹ s⁻¹.

Regarding B2, the Kd was 477 nM, the koff worked out at 0.2 s⁻¹ and the kon was determined as 430000 M⁻¹ s⁻¹.

As for B3, the Kd was determined as 164 nM, the koff was 0.13 s⁻¹ and the kon was 780000 M⁻¹ s⁻¹.

For B4, the dissociation constant (Kd) stood at 59 nM, the off-rate constant (koff) worked out at 0.028 s⁻¹ and the kon stood at 540000 M⁻¹ s⁻¹.

B5: the Kd was determined as 94 nM, the koff is 0.014 s⁻¹ and the kon stood at 150000 M⁻¹ s⁻¹.

Turning to B6, the dissociation constant Kd is 160 nM, the koff is 0.042 s⁻¹ and the kon amounted to 280000 M⁻¹ s⁻¹.

In the case of B7, the Kd turned out to be 21.3 nM, the koff turned out to be 0.0051 s⁻¹ and the kon is 240000 M⁻¹ s⁻¹.

Regarding B8, the Kd was found to be 332 nM, the koff came out at 0.051 s⁻¹ and the kon is 150000 M⁻¹ s⁻¹.

For a further assay, the target named is T2, recombinant fibronectin domain 7-8-9 (without ED-B) (UniProt P02751-1 1173-1446, limits assumed).
T2 construct: domain: fibronectin domains 7-8-9 (without ED-B)
The assay can be described thus: specificity ELISA on immobilised recombinant domain 7-8-9. (In an ELISA, binding on a coated surface is turned into a signal by an enzyme label.)
Turning to B1, the binding result is recorded as “no binding”.

For the molecule B2, the binding result is reported as “no binding”.

Turning to B5, the binding result is given as “no binding”.

As for B6, the binding result is reported as “no binding”.

Consider B7, for which the binding result is on record as “no binding”.

Another assay has as its target T3, recombinant fibronectin domain 6 (UniProt P02751 1086-1172, limits assumed).
T3 construct: domain: fibronectin domain 6; also called 6FN; 6-FN
Description: specificity ELISA on immobilised recombinant fibronectin domain 6.
On to B1, for which the binding result was “no binding”.

As for B2, the binding result is recorded as “no binding”.

Consider B5, for which the binding result is reported as “no binding”.

As for B6, the binding result is listed as “no binding”.

For B7, the binding result is given as “no binding”.

The target in another assay is T1, recombinant fibronectin domain ED-B …. The assay can be described thus: SPR (BIAcore); ratio to parent clone MOR02619. How it is done:
as §1
For the molecule B9, the “x-Fold Improvement Relative to the Parent Clone, KD” value turned out to be 3.8 fold; the “x-Fold Improvement Relative to the Parent Clone, Koff” value worked out at 2.8 fold; the “x-Fold Improvement Relative to the Parent Clone, Kon” value stood at 1.4 fold.

On to B10, for which the “x-Fold Improvement Relative to the Parent Clone, KD” value was found to be 4.8 fold; the “x-Fold Improvement Relative to the Parent Clone, Koff” value is 3.2 fold; the “x-Fold Improvement Relative to the Parent Clone, Kon” value worked out at 1.5 fold.

Consider B11, for which the “x-Fold Improvement Relative to the Parent Clone, KD” value worked out at 5.4 fold; the “x-Fold Improvement Relative to the Parent Clone, Koff” value came to 2.6 fold; the “x-Fold Improvement Relative to the Parent Clone, Kon” value was determined as 2.2 fold.

For B12, the “x-Fold Improvement Relative to the Parent Clone, KD” value worked out at 5.1 fold; the “x-Fold Improvement Relative to the Parent Clone, Koff” value amounted to 2.3 fold; the “x-Fold Improvement Relative to the Parent Clone, Kon” value amounted to 2.3 fold.

Turning to B13, the “x-Fold Improvement Relative to the Parent Clone, KD” value was 6.8 fold; the “x-Fold Improvement Relative to the Parent Clone, Koff” value worked out at 5 fold; the “x-Fold Improvement Relative to the Parent Clone, Kon” value worked out at 1.4 fold.

The target is the same in another assay. Description: SPR (BIAcore), ED-B immobilised on chip (about 100 RU), Fab in flow. As to the method:
as §1
In the case of B14, the Kd turned out to be 0.7 nM, the koff is 0.0018 s⁻¹ and the kon was 2.9e+06 M⁻¹ s⁻¹.

The target is the same in another assay. The assay can be described thus: SPR (BIAcore), ED-B immobilised on chip, Fab in flow. This is another data set of the same source. How it is done: as §1
As for B9, the Kd was determined as 4.2 nM, the koff stood at 0.0047 s⁻¹ and the kon was 1.1e+06 M⁻¹ s⁻¹.

As to B10, the Kd is 3.3 nM, the koff stood at 0.0041 s⁻¹ and the kon was 1.2e+06 M⁻¹ s⁻¹.

B11: the Kd was found to be 3 nM, the koff is 0.0051 s⁻¹ and the kon is 1.8e+06 M⁻¹ s⁻¹.

As to B12, the Kd came to 3.1 nM, the koff was determined as 0.0057 s⁻¹ and the kon worked out at 1.9e+06 M⁻¹ s⁻¹.

Consider B13, for which the Kd was 2.4 nM, the koff came to 0.0026 s⁻¹ and the on-rate (kon) was 1.1e+06 M⁻¹ s⁻¹.

The values are drawn from patent US20060115428A1 (MorphoSys, published 2006).
